According to patent US20220218659:

Target: T1, Human ACLY, His-tagged, bacterially expressed and purified recombinant full length protein, P53396
T1 chain: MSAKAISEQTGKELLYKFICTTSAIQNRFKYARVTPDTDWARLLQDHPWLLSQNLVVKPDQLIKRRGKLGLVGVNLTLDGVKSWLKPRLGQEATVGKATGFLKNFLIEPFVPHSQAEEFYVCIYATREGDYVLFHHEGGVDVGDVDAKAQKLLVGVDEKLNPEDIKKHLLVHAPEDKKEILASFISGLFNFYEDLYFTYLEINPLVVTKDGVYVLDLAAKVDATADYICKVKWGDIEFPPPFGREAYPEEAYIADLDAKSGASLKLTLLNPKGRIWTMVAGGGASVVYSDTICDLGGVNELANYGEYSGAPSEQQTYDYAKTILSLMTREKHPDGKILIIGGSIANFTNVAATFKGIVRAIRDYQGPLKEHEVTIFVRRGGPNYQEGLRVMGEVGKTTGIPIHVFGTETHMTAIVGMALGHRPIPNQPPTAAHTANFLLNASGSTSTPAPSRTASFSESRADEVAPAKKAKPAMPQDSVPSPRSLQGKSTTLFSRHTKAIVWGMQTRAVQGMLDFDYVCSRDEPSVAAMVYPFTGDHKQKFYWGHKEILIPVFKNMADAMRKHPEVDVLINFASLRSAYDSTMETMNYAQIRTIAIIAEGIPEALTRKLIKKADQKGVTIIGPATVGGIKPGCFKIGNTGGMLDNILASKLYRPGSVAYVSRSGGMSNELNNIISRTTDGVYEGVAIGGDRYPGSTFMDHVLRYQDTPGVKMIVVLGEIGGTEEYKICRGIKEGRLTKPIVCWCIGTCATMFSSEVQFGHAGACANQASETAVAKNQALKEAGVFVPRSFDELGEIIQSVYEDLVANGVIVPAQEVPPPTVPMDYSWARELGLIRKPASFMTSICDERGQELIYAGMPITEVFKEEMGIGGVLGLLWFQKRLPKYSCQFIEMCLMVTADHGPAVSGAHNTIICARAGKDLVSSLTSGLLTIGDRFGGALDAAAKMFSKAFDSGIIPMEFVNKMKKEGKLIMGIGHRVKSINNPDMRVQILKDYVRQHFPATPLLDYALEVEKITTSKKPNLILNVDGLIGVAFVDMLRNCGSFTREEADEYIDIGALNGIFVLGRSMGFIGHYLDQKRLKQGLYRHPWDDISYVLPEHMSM

B1: Active recombinant Lyn kinase (protein)
chain: MGCIKSKGKDSLSDDGVDLKTQPVRNTERTIYVRDPTSNKQQRPVPESQLLPGQRFQTKDPEEQGDIVVALYPYDGIHPDDLSFKKGEKMKVLEEHGEWWKAKSLLTKKEGFIPSNYVAKLNTLETEEWFFKDITRKDAERQLLAPGNSAGAFLIRESETLKGSFSLSVRDFDPVHGDVIKHYKIRSLDNGGYYISPRITFPCISDMIKHYQKQADGLCRRLEKACISPKPQKPWDKDAWEIPRESIKLVKRLGAGQFGEVWMGYYNNSTKVAVKTLKPGTMSVQAFLEEANLMKTLQHDKLVRLYAVVTREEPIYIITEYMAKGSLLDFLKSDEGGKVLLPKLIDFSAQIAEGMAYIERKNYIHRDLRAANVLVSESLMCKIADFGLARVIEDNEYTAREGAKFPIKWTAPEAINFGCFTIKSDVWSFGILLYEIVTYGKIPYPGRTNADVMTALSQGYRMPRVENCPDELYDIMKMCWKEKAEERPTFDYLQSVLDDFYTATEGQYQQQP
Q: Which results are given for B1?
A: ACLY tyrosine residues phosphorylated (phosphoproteomics): The three ACLY tyrosine residues, Y682, Y252, Y227, were common for Lyn and Src; number of ACLY tyrosine residues phosphorylated (in vitro kinase assay, phosphoproteomics) (tyrosine residues): 6
